Measured values: publication PMC7772510

Molecular target: complement fragment iC3b (UniProt P01024)
Test: ELISA

- percent of the anticipated saturation level at 8 µM: 50%
Substance: GST-αM I-domain (domain or fragment)
